Assay [1] deals with Dopamine receptor D2 (D2R) peptide (N430-R443). Kind of assay: ITC; MicroCal VP-ITC; 50 μM D2R peptide in the cell titrated with NCS-1; 25°C; 20 mM Tris-HCl pH 8.0, 150 mM NaCl, 5 mM CaCl2 and 100 μM ZnCl2; one set of sites model.
Assay [2] has the same target. Kind of assay: ITC; MicroCal VP-ITC; 50 μM D2R peptide in the cell titrated with NCS-1 (1 mM stock, thirty 10 μl injections); 25°C; 20 mM Tris-HCl pH 8.0, 150 mM NaCl, 5 mM CaCl2; one set of sites model. Background: In ITC the heat of successive injections is recorded.
Assay [3] addresses GST-tagged N-terminal fragment of GRK1 (M1-G183) (UniProt P28327). Kind of assay: pull-down; 50 μg GST-N-GRK1 immobilised on Glutathione Sepharose; 25 μM NCS-1 applied; 20 mM Tris pH 8.0, 150 mM NaCl, 1 mM DTT, 1 mM CaCl2 and 0-100 μM ZnCl2; 1 h at 4°C; bound NCS-1 detected by western blotting. (In western blotting, separated proteins are transferred to a membrane and probed.)
Sequence of UniProt P28327 (P28327 1-183): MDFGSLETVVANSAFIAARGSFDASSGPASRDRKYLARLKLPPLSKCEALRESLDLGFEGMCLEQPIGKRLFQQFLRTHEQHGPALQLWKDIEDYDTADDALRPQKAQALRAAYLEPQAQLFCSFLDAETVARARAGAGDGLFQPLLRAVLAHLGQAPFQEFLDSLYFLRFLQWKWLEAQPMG

On to “Neuronal calcium sensor-1 (recombinant myristoylated NCS-1) (from UniProt P62166 1-190) (natural protein)”, for which, in assay [1], the Ka was determined as 118000 M⁻¹, the dissociation constant Kd came to 8.47 µM, the dH was -3.2 kcal/M and the stoichiometry N was determined as 0.508. In assay [2], the Ka was found to be 33200 M⁻¹, the Kd was determined as 30.1 µM, the dH was -3 kcal/M and the stoichiometry N amounted to 0.676. Moreover, in assay [3], the fold change of binding with 25 μM Zn^2+ against no Zn^2+ came out at 2 fold.

By Kd is commonly meant a measure of binding affinity in units of concentration. By stoichiometry N is commonly meant the number of molecules, sites or subunits per partner or assembly.

Values taken from paper PMC6302015.
